Residue numbers refer to the chain shown, from its start.
T1: SAPK3 (Mus musculus, UniProt O08911)
T1 construct: His (N); made in house; host or cells: E. coli
T1 sequence (O08911 1-367): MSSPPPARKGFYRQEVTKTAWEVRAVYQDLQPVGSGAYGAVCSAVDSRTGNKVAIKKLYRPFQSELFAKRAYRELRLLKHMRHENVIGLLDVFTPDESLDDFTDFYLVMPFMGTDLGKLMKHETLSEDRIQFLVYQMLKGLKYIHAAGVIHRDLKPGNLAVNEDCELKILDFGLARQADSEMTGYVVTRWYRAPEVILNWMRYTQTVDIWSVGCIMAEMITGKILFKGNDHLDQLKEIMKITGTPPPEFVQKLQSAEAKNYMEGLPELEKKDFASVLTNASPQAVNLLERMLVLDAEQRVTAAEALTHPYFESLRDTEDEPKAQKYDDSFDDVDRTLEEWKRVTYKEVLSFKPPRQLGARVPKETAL

B1: activated MKK7: human MKK7 (SEQ ID NO: 2) as GST fusion, activated by co-expression with MEKK1 in E. coli (protein)
chain: AASSLEQKLSRLEAKLKQENREARRRIDLNLDISPQRPRPIIVITLSPAPAPSQRAALQLPLANDGGSRSPSSESSPQHPTPPARPRHMLGLPSTLFTPRSMESIEIDQKLQEIMKQTGYLTIGGQRYQAEINDLENLGEMGSGTCGQVWKMRFRKTGHVIAVKQMRRSGNKEENKRILMDLDVVLKSHDCPYIVQCFGTFITNTDVFIAMELMGTCAEKLKKRMQGPIPERILGKMTVAIVKALYYLKEKHGVIHRDVKPSNILLDERGQIKLCDFGISGRLVDSKAKTRSAGCAAYMAPERIDPPDPTKPDYDIRADVWSLGISLVELATGQFPYKNCKTDFEVLTKVLQEEPPLLPGHMGFSGDFQSFVKDCLTKDHRKRPKYNKLLEHSFIKRYETLEVDVASWFKDVMAKTESPRTSGVLSQPHLPFFR
modifications: left off: a dimerising Fc or GST
B2: mouse SEK1: known MAPK kinase, mouse SEK1 expressed as GST-SEK1 (protein)
chain: MAAPSPSGGGGSGGGGGTPGPIGPPASGHPAVSSMQGKRKALKLNFANPPVKSTARFTLNPNTTGVQNPHIERLRTHSIESSGKLKISPEQHWDFTAEDLKDLGEIGRGAYGSVNKMVHKPSGQIMAVKRIRSTVDEKEQKQLLMDLDVVMRSSDCPYIVQFYGALFREGDCWICMELMSTSFDKFYKYVYSVLDDVIPEEILGKITLATVKALNHLKENLKIIHRDIKPSNILLDRSGNIKLCDFGISGQLVDSIAKTRDAGCRPYMAPERIDPSASRQGYDVRSDVWSLGITLYELATGRFPYPKWNSVFDQLTQVVKGDPPQLSNSEEREFSPSFINFVNLCLTKDESKRPKYKELLKHPFILMYEERTVEVACYVCKILDQMPATPSSPMYVD
modifications: left off: a dimerising Fc or GST
B3: MKK6: known MAPK kinase, human MKK6 expressed as His-MKK6 (protein)
chain: MSQSKGKKRNPGLKIPKEAFEQPQTSSTPPRDLDSKACISIGNQNFEVKADDLEPIMELGRGAYGVVEKMRHVPSGQIMAVKRIRATVNSQEQKRLLMDLDISMRTVDCPFTVTFYGALFREGDVWICMELMDTSLDKFYKQVIDKGQTIPEDILGKIAVSIVKALEHLHSKLSVIHRDVKPSNVLINALGQVKMCDFGISGYLVDSVAKTIDAGCKPYMAPERINPELNQKGYSVKSDIWSLGITMIELAILRFPYDSWGTPFQQLKQVVEEPSPQLPADKFSAEFVDFTSQCLKKNSKERPTYPELMQHPFFTLHESKGTDVASFVKLILGD
modifications: left off: small tags and cut ends
B4: mouse MKK7: novel MAPK kinase derived from mouse brain, amino acid sequence SEQ ID NO: 4 (protein)
chain: MAASSLEQKLSRLEAKLKQENREARRRIDLNLDISPQRPRPIIVITLSPAPAPSQRAALQLPLANDGGSRSPSSESSPQHPTPPTRPRHMLGLPSTLFTPRSMESIEIDQKLQEIMKQTGYLTIGGQRYQAEINDLENLGEMGSGTCGQVWKMRFRKTGHIIAVKQMRRSGNKEENKRILMDLDVVLKSHDCPYIVQCFGTFITNTDVFIAMELMGTCAEKLKKRMQGPIPERILGKMTVAIVKALYYLKEKHGVIHRDVKPSNILLDERGQIKLCDFGISGRLVDSKAKTRSAGCAAYMAPERIDPPDPTKPDYDIRADVWSLGISLVELATGQFPYKNCKTDFEVLTKVLQEEPPLLPGHMGFSGDFQSFVKDCLTKDHRKRPKYNKLLEHSFIKHYEILEVDVASWFKDVMAKTESPRTSGVLSQHHLPFFSGSLEESPTSPPSPKSFPLSPAIPQAQAEWVSGR
B5: MKK7KL: dominant negative form of mouse MKK7, 165th Lysine (K) substituted with leucine (L), SEQ ID NO: 10 (protein)
chain: B4 chain with K165L

Columns and labels:
JNK1 = target: T2, JNK1 (Homo sapiens, UniProt P45983); test: Activity of activated MKK7 on JNK1, dot hybridization with anti-activated JNK antibody; format: biochemical; details: 0.1 μM MKK7, 0.2 μM JNK1, 0.1 mM ATP, 30° C. 2 hours
T2 construct: GST (N); made in house; host or cells: E. coli (GST-MKK7: E. coli DH5α co-transformed with a MEKK1 vector)
Protocol: In order to screen an inhibitor of MKK7, a completely activated MKK7 was prepared as follows. Illustratively stated, as an activation factor for MKK7, MEKK1 which is suspected to exist in the upstream of MKK7 and activate MKK7, was used. A commercially available MEKK1 gene (manufactured and sold by Stratagene Cloning Systems, USA) was inserted into an E. coli expression vector in which the origin of replication (ori) is p15A, to thereby prepare recombinant MEKK1 vector. The whole DNA of human MKK7 was inserted into vector pGEX-4T1 (manufactured and sold by Pharmacia Biotech AB, Sweden), to thereby prepare recombinant GST-MKK7 vector. Two recombinant expression vectors prepared above were co-transformed into E. coli DH5α to thereby obtain an activated GST-MKK7, and the activated GST-MKK7 was purified from E. coli using Glutathione-Sepharose 4B column (manufactured and sold by Pharmacia Biotech AB, Sweden).
A gene encoding human JNK1 was inserted into vector pGEX-4T1, thereby preparing recombinant GST-JNK1 vector, and the prepared recombinant vector was transformed into and expressed in E. coli. GST-JNK1 was purified from the transformants using Glutathione-Sepharose 4B column (manufactured and sold by Pharmacia Biotech AB, Sweden). […]
Using the activated MKK7 and JNK1 obtained above, the activity of MKK7 was determined in the following manner. […]

p38 = target: T3, p38 (Mus musculus, UniProt P47811); test: Activation of MAP kinase by recombinant MAPK kinase in vitro, substrate phosphorylation by autoradiography; format: biochemical; details: 0.1 μg MAPK kinase, 0.5 μg His-p38, 30° C. 30 minutes; substrate ATF-2
T3 construct: His (N); made in house; host or cells: E. coli
Protocol: (§1) 0.1 μg of a MAPK kinase (His-MKK7, GST-SEK1 and His-MKK6 were separately used) and 0.5 μg of a MAP kinase (His-MAPK, His-SAPK, His-p38 and His-SAPK3 were separately used), both prepared in item (1) above, were incubated with 10 μl of a solution containing 100 μM ATP, 20 mM MgCl2, 2 mM EGTA and 20 mM Tris-HCl (pH 7.5) at 30° C. for 30 minutes, to thereby activate the MAP kinase. Subsequently, 5 μl of a solution containing a substrate for the MAP kinase and 1 μCi of [γ-^32P] ATP (manufactured and sold by Amersham International, England) was added to the mixture, and further incubated at 20° C. for 20 minutes. As a substrate for the MAP kinase, 3 μg of myelin basic protein (MBP) was used for MAPK and SAPK3, 3 μg of GST-cJun (1-79) was used for SAPK, and 3 μg of ATF-2 was used for p38. The MBP used as the substrate was obtained by purifying Brain Acetone Powder (manufactured and sold by Sigma, USA), and ATF-2 was a kind gift of Dr. Suzanne J. Baker and Dr. Tom Curran (St. Jude Children's Research Hospital). After incubation, a sample was obtained from each incubated mixture and resolved on SDS-polyacrylamide gel electrophoresis. Then, the radioactivity of each of MBP, c-Jun and ATF-2 was detected by autoradiography.

SAPK3 = target: T1, SAPK3; test: as above; format: biochemical; details: 0.1 μg MAPK kinase, 0.5 μg His-SAPK3, 30° C. 30 minutes
Protocol: as §1

SAPK = target: T4, SAPK (Mus musculus, UniProt Q9WTU6); test: as above; format: biochemical; details: 0.1 μg MAPK kinase, 0.5 μg His-SAPK, 30° C. 30 minutes; substrate GST-cJun (1-79)
T4 construct: His (N); made in house; host or cells: E. coli
Protocol: as §1

[1] = Optimum pH and heat deactivation of MKK7; format: physicochemical
Protocol: In addition to MKK7, MKK6 and SEK1 were used as the MAPK kinase, and MAPK, SAPK, p38 and SAPK3 were used as the MAP kinase. A MAPK kinase gene and a MAP kinase gene were cotransfected to a cell in different combinations, and the activity of the MAP kinase in vivo was determined by measuring the amount of a substrate (for the transfected MAP kinase) phosphorylated by the cotransfected cells. […] From this experiment, it has become apparent that the optimum pH for MKK7 is in the range of from pH 7 to 8, and MKK7 is deactivated at 70° C. or higher.

SAPK/JNK = test: Inhibition of TNF-α-induced SAPK activation by the dominant negative form of MKK7 in KB cells; details: KB cells cotransfected with pSRα-HA-SAPKα and pSRα-MKK7KL; TNF-α 100 ng/ml, 15 minutes; sorbitol- and anisomycin-induced activation not suppressed
Protocol: KB cells were cotransfected with the vector pSRα-HA-SAPKα (0.5 μg) and either the vector pSRα or the vector pSRα-MKK7KL (1.5 μg) using Lipofectamine (manufactured and sold under the brand of GIBCO BRL, USA). Twenty-four hours after the transfection, TNF-α (100 ng/ml), sorbitol (0.5 M) and anisomycin (100 μg/ml) were individually used to stimulate the transfected cells for 15 minutes. Next, the cell extracts of the stimulated cells were individually prepared as follows. The cells were suspended in 0.7 M NaCl solution and washed once with ice-cold HEPES-buffered saline. Subsequently, the washed cells were homogenized in a buffer containing 20 mM Tris-HCl (pH 7.5), 2 mM EGTA, 25 mM β-glycerophosphate, 2 mM DTT, 1 mM vanadate, 1 mM PMSF and 1% aprotinin, wherein the buffer was used in an amount of 300 μl relative to cells obtained per plate (diameter: 100 mm). The resultant cell homogenate was centrifuged at 1000×g for 3 minutes, followed by a further centrifugation at 400,000×g for 20 minutes, thereby obtaining a supernatant. The obtained supernatant was used as the cell extract.
Each of the cell extracts was individually immunoprecipitated with anti-HA antibody (anti-hemagglutinin antibody) (12CA5), and the kinase activity of HA-SAPK in the immunoprecipitate was determined.

T3 sequence (P47811 whole entry): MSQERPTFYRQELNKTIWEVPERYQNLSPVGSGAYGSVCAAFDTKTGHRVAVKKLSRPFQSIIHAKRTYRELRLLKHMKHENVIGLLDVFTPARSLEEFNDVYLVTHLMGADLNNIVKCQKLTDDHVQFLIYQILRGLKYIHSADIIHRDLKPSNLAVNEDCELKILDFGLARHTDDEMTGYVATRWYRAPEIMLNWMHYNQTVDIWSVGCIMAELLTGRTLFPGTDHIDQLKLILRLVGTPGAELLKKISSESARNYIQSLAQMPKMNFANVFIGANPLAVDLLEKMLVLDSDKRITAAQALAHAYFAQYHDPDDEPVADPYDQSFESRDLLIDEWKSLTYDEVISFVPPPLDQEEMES
T2 sequence (P45983 whole entry): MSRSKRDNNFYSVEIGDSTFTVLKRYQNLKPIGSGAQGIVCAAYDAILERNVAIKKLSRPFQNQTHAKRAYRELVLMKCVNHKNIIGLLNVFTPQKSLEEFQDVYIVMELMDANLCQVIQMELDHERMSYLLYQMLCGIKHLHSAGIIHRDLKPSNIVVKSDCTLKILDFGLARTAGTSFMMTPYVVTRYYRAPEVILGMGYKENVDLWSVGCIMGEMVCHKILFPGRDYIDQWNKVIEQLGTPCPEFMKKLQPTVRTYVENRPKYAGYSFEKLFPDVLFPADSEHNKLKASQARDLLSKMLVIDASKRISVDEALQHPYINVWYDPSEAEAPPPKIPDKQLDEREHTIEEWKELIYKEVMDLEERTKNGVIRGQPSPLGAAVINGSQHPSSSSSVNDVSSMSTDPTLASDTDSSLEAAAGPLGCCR

Row | Molecule | activity of MKK7 (presence of activated JNK1) (JNK1) | activation of p38 (phosphorylation of ATF-2) (p38) | activation of SAPK3 (phosphorylation of MBP) (SAPK3) | activation of SAPK (phosphorylation of c-Jun) (SAPK) | optimum pH [1] | temperature at which MKK7 is deactivated [1] | TNF-α-induced activation of SAPK/JNK in a cell expressing MKK7KL (SAPK/JNK)
1 | B1 | confirmed | – | – | – | – | – | –
2 | B2 | – | activated | activated | activated | – | – | –
3 | B3 | – | activated | activated | did not activate | – | – | –
4 | B4 | – | did not activate | did not activate | specifically activated | 7 to 8 pH | ≥ 70 °C | –
5 | B5 | – | – | – | – | – | – | suppressed
